Values quoted from earlier work, collected in PMC3535496.

Target: Jun TAD (Homo sapiens) (UniProt P05412)
Chain of UniProt P05412 (P05412 47-89): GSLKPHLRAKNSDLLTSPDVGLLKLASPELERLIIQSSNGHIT

## CBP KIX (from UniProt Q92793)
  Kd: 30 µM
